In publication PMC5875921 one finds Kd data, which are given here for two substances.

The target in series [1] is HNH domain of NmeCas9 (Neisseria meningitidis) (UniProt C9X1G5). Briefly: ITC. A general note: In ITC the heat of successive injections is recorded.
Series [2] deals with NmeCas9 (Neisseria meningitidis). Briefly: fluorescence polarization. Conditions: not given in the material (Methods absent). (In general: Fluorescence polarisation rises when a labelled molecule tumbles more slowly, as on binding a larger partner.)

Usually Kd stands for the free concentration of one partner at which half of the binding sites on the other are occupied at equilibrium, for simple one-to-one binding. A high value points to weaker binding. Consider “AcrIIC1 from Neisseria meningitidis (natural protein)”, for which the Kd in series [1] came to 6.3 nM.
In series [2], NmeCas9 sgRNA + target DNA registered a Kd of 71 nM.
